For data set [1], the system named is YihW (CsqR) Nissle 1917 (Escherichia coli Nissle 1917). The experiment in a line: EMSA. As to conditions: 50 mM Tris-Cl (pH not stated), 100 mM KCl, 50% glycerol, 1 mM EDTA (1x), 0.5 pmol DNA, 2-24 pmol YihW, 30 or 37 C, 30 min, 5% PAGE in 1x TBE, scale: protein:DNA molar ratio for complete binding. (A gel shift assay detects complexes by their altered migration in electrophoresis.)

Data set [2] relates to YihW (CsqR) K-12 MG1655 (Escherichia coli K-12 MG1655). Description: EMSA. As to conditions: 50 mM Tris-Cl (pH not stated), 100 mM KCl, 50% glycerol, 1 mM EDTA (1x); 0.5 pmol DNA, 2-24 pmol YihW; 30 or 37 C, 30 min; 5% PAGE in 1x TBE; scale: protein:DNA molar ratio for complete binding.

Bounds are passed on as bounds.

Consider yihU/V intergenic region, Nissle 1917, for which the binding signal was 24 in data set [1] (30 C); above 48 in data set [1] (37 C, some DNA free at 48x, weaker than K-12 fragment); 16 in data set [2].

Consider yihU/V intergenic region, K-12 MG1655, for which the binding signal in data set [1] (30 C, equal efficiency to Nissle fragment) was 24; in data set [2] it was 16.

Source of the values: paper PMC12608037.
